Consider one molecule from publication PMC9839844, “PPDPF Promotes the Development of Mutant KRAS‐Driven Pancreatic Ductal Adenocarcinoma by Regulating the GEF Activity of SOS1” (Advanced Science, 2022).

This assay has as its target T1, SOS1^Cat (catalytic module of SOS1: REM and CDC25 domains), recombinant (UniProt Q07889 566-1046).
T1 construct: SOS1, Cat domain (REM and CDC25 domains together); cloned into the ProEX HTb vector; also called SOS^Cat; Cat domain; source: E. coli BL21 (Rosta), purified (His beads)
T1 sequence: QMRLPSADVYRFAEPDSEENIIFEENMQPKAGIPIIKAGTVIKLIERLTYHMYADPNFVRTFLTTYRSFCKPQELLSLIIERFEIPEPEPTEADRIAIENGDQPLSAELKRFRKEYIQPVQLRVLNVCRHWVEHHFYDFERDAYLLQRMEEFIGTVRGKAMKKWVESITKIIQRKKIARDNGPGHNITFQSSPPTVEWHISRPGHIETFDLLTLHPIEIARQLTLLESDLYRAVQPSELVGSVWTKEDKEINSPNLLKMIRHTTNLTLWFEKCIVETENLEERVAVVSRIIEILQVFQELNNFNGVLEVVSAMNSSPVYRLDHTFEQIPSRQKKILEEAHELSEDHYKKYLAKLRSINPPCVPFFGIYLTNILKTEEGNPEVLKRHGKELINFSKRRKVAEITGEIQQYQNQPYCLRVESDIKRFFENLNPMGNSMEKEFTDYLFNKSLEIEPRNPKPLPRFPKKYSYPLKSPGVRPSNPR
Kind of assay: pull-down; GST pulldown in vitro with recombinant proteins. As to conditions: both partners purified.

B1: PPDPF, recombinant (natural protein, UniProt Q9H3Y8 1-114, looked up)
chain: MAAIPSSGSLVATHDYYRRRLGSTSSNSSCSSTECPGEAIPHPPGLPKADPGHWWASFFFGKSTLPFMATVLESAEHSEPPQASSSMTACGLARDAPRKQPGGQSSTASAGPPS
notes: Pancreatic progenitor cell differentiation and proliferation factor (PPDPF); subcloned into pGEX-4T-1; The methods say that the beads were incubated with thrombin; also called PPDPF recombinant protein; source: E. coli BL21, purified (GST beads)
As to B1, the binding result is listed as “binds”.
